Biological target: pFAST_(99-114)–FRB–pFAST_(1-98)
Assay: split reporter

Question: For FKBP–pFAST_(115-125), which percent complementation at 5 μM HBR-2,5DM without rapamycin is on record?
Answer: Its percent complementation at 5 μM HBR-2,5DM without rapamycin is < 6.5%.

— PMC12307597
